From US20100292442A1

Experiments:
[1] = target: huIL-17RA-FLAG-polyHis (human) (UniProt Q96F46); assay: Luminex binning; bead mAb J holds IL-17RA
[2] = target: huIL-17RA-FLAG-polyHis (human) (UniProt Q96F46); assay: Luminex binning; bead huIgG control (f15) + IL-17RA; self pair (boxed) [D00007 Fig. 8B]

- normalized MFI [1]: 42
- normalized MFI [2]: 65
Substance: huIgG (antibody)
